Results reported in article PMC11784217.

B1: wild-type US28 receptor with a C-terminal natural peptide tag (US28-NP) [human cytomegalovirus (HCMV)] / LgBiT-Gαq [not stated] (parent)
chain 1: MTPTTTTAELTTEFDYDEDATPCVFTDVLNQSKPVTLFLYGVVFLFGSIGNFLVIFTITWRRRIQCSGDVYFINLAAADLLFVCTLPLWMQYLLDHNSLASVPCTLLTACFYVAMFASLCFITEIALDRYYAIVYMRYRPVKQACLFSIFWWIFAVIIAIPHFMVVTKKDNQCMTDYDYLEVSYPIILNVELMLGAFVIPLSVISYCYYRISRIVAVSQSRHKGRIVRVLIAVVLVFIIFWLPYHLTLFVDTLKLLKWISSSCEFERSLKRALILTESLAFCHCCLNPLLYVFVGTKFRQELHCLLAEFRQRLFSRDVSWYHSMSFSRRSSPSRRETSSDTLSDEVCRVSQIIP
chain 2: MTLESIMACCLSEEAKEARRINDEIERQLRRDKRDARRELKLLLLGTGESGKSTFIKQMRIIHGSGYSDEDKRGFTKLVYQNIFTAMQAMIRAMDTLKIPYKYEHNKAHAQLVREVDVEKVSAFENPYVDAIKSLWNDPGIQECYDRRREYQLSDSTKYYLNDLDRVADPAYLPTQQDVLRVRVPTTGIIEYPFDLQSVIFRMVDVGGQRSERRKWIHCFENVTSIMFLVALSEYDQVLVESDNENRMEESKALFRTIITYPWFQNSSVILFLNKKDLLEEKIMYSHLVDYFPEYDGPQRDAQAAREFILKMFVDLNPDSDKIIYSHFTCATDTENIRFVFAAVKDTILQLNLKEYNLV
B2: wild-type US28 receptor with a C-terminal natural peptide tag (US28-NP) [human cytomegalovirus (HCMV)] / LgBiT-Gα12 [not stated] (parent)
chain 1: B1 chain 1
chain 2: MSGVVRTLSRCLLPAEAGGARERRAGSGARDAEREARRRSRDIDALLARERRAVRRLVKILLLGAGESGKSTFLKQMRIIHGREFDQKALLEFRDTIFDNILKGSRVLVDARDKLGIPWQYSENEKHGMFLMAFENKAGLPVEPATFQLYVPALSALWRDSGIREAFSRRSEFQLGESVKYFLDNLDRIGQLNYFPSKQDILLARKATKGIVEHDFVIKKIPFKMVDVGGQRSQRQKWFQCFDGITSILFMVSSSEYDQVLMEDRRTNRLVESMNIFETIVNNKLFFNVSIILFLNKMDLLVEKVKTVSIKKHFPDFRGDPHRLEDVQRYLVQCFDRKRRNRSKPLFHHFTTAIDTENVRFVFHAVKDTILQENLKDIMLQ

Variants of: B1
Test: NanoBiT nLuc complementation assay in live HEK-293 cells (Nano-Glo live cell assay), area under the curve
Conditions: with LgBiT-Gαq, 18 hours post-transfection media exchanged with serum-free DMEM, 6 hours later luciferase activity monitored for 60 minutes, parent: 2.9e+07, read off a plot

Row | Variant | response (Arbitrary Units)
1 | chain 1 D128A R129A Y130A | 6e+06
2 | chain 1 R225A | 1.6e+07
3 | chain 1 K223A | 1.7e+07
4 | chain 1 S218A | 1.8e+07
5 | chain 1 S220A | 3e+07

Variants of: B2
Test: as above
Conditions: with LgBiT-Gα12, 18 hours post-transfection media exchanged with serum-free DMEM, 6 hours later luciferase activity monitored for 60 minutes, parent: 2.2e+07, read off a plot

Row | Variant | response (Arbitrary Units)
6 | chain 1 R225A | 1.1e+07
7 | chain 1 S220A | 1.7e+07
8 | chain 1 K223A | 8.9e+06
9 | chain 1 D128A R129A Y130A | 2.8e+06
10 | chain 1 S218A | 6.8e+06
